Target: hsp7f_yeast SSE1 (UniProt P32589)
Sequence (P32589 whole entry): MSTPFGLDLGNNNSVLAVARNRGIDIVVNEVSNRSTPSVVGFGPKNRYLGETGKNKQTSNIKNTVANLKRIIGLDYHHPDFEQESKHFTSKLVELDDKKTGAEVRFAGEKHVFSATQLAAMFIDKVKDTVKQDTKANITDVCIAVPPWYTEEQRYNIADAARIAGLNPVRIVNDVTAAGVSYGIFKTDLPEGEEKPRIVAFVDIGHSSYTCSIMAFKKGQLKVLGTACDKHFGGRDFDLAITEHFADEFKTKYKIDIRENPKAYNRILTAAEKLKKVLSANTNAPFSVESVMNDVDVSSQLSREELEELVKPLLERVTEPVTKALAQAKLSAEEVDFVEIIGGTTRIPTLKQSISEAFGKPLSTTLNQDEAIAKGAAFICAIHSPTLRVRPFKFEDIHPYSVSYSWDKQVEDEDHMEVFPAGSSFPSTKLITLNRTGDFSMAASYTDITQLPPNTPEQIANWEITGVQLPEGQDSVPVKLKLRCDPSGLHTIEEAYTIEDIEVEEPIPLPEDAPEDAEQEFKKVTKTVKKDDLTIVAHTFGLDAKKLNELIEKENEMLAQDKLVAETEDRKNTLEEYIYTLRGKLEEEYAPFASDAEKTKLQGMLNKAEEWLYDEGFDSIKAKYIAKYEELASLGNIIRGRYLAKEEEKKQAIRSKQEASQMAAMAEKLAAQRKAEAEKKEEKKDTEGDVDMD

Row | effect of a mutation on the interaction | Substance
1 | decreasing interaction | Heat shock protein SSA1 (Saccharomyces cerevisiae), P10591 A297E
2 | decreasing interaction | Heat shock protein SSA1 (Saccharomyces cerevisiae), P10591 Q31A

From IntAct's records for PubMed 18555782
